Reference: the domain aggregation screens of Martell et al. (2025)

Test: soluble fraction after stress (log2 fold change); higher = more stays soluble; pooled small domains, quantitative proteomics
Settings: stress: 50 degC
In short: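 The measure of aggregation propensity here is the base-two logarithm of the fold change in the soluble amount of each protein after stress. A higher value means more of that protein stays in solution. Stress was applied at 50°C to pooled libraries of small protein domains, read out by high-throughput quantitative proteomics.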

Point of comparison: “HMGDFVIVPDLIGKTIEEFDSELNELNLKYIISDSGNYNPDFKINSVLDQLPNANSKVKGGRKIYITLNAS”, “soluble fraction (log2)” value -1.37. Against it:
- HMGDFLLTPHRGRSADFVIGNPPYIRLEDVPNDISDAYRAEYASMPGRADIHVGFYEKGLDL — higher, -0.142
- HMGDGAWQQGEGGRWWYKYNNGTYPKDRVVTIGGKKYGFDSEGWMLSDTTKAFGGTTYSFAADGVATAQA — higher, -0.0259
- HMGDGYTYYYDDTVLALGFTKIGNDYYIFNTFSGKMYKDATMWVNDNPYGIKGGMHYFDASGKMFV — higher, 0.128
- HMGDIFTAEDAKERIDYSGVDGIMLARGIFGNPWLIRDIREYLEYGKILHPVTQLDRVNMAIEHTRKT — higher, 0.0388
- HMGDIMLLFKENGKVYFLVGNQYTYVKNPTELSAIKTMMKQAGYDTHEHTNTTQVAYIKRLATE — lower, -2.11
- HMGDKVLIQTAQRLKKDLPFASIVSRFGGDEFLIFLPGISSTERVETIVKKTVFLFIAISTTLF — higher, -0.124
- HMGDLKSLIQATMDDAGISIKPDAMDYLISHLGSDRLTTRAELDKLILYAGADDKLDLDSVVELVG — higher, -0.0746
- HMGDLLTVDRVAATSGLGVDTIRYYQRLGLLDPPVRHGRRALYSTAHLDRLVEIRQLADEGFSLAQIATL — higher, -1.08
- HMGDLVFDFVHGVHKAAEVEKELVMQALRFTHGNVSRAARLIGMQRSSLRYRIERYRLDAFVMEVAN — higher, 0.3
- HMGDPSSERNIQKSIFILIGEKALSVQDISRSLGMPNDIIDKALISGVERNLWLSSDKGEYYL — higher, -1.1
- HMGDRRSVFEQSVLDAIKSLVKQGELATTKAISDHIGTNYQGNVSRAITALLADNKIKKLPKEGVLQPYEA — higher, 0.0535
- HMGDSFLDHKKELQSMILSRLDLSREVPDEEIKDIIDELIIAQSKKLFLSLNDRGKLRQELFYSIRK — higher, -0.566
- HMGDSVLNDKLNTLAGLDEERFKWVLASLNPNNSYSTHSDKMSALMWLVSYFNDEADLKETVPPLPI — higher, -0.0724
- HMGDTIFINNNFYVKHIVEFGETIDIISKIYDVSVNKILETNETSTKLYSGQSLFIPININV — lower, -3.4
- HMGDTLEIVVIYSNKQKAEEAVNNLKGKFEDLGYNFAIITVDTSKITQLAMESSIQYIEFPKSFYFSD — lower, -1.64
- HMGDVATVKLDNNGLLNMRKSDARGADIVARIPNGTVVQVLNRETEWTQVRYDGKEGYVMSSFLQFAE — higher, 0.199
- HMGDVPESLVEKAGHSINAKIISAWGMTETGASTMTRPQDDPERAIYSDGVVLPLMDVRVVNDAGLA — higher, 0.0119
- HMGDWEKALAQFAAHRLANGSTAFLDEMYPIFERILLQAALNKTGGRKIEAAELLGWGRNTLTRKLKELGF — lower, -2.2
- HMGDYERVPEYKGKLTSDLTMEDSQKFAFRFIWQNSDEDEGKIIDQDPPAGKSVAKGSEIVLYVSNG — higher, 0.35
- HMGEAAIYRINILINNLNVRSGPGTLYPRLRRADFPGEYDIFEEKNGFGRISNTKSEWVSLNTQYVQRLT — higher, -0.549
- HMGEAIPVPDLKHKALTDAEHLVHELGLEIQVVDTGYVKSLPADYILGQSLAPGEKVKSGHIIYVTINSP — higher, -0.0167
- HMGEGTAVGKALKFLAAQGKKFAPELLDMAGSLTGVEALSKLGDAIKGDPELSELDKRILLAELETDAV — higher, -0.0713
- HMGEIHALIPGLVSRLFVKPGDRVENGQGLLILEAMKMENEIDSPISGVVGKIYIKAGDKVEKGELIMEIN — higher, -0.46
- HMGEIVVPDLIGKSLTEATRILSDSTLTVGKVNYQISSTLLPNTVLDQYPAPGNKLNSGNTVDLFITKE — higher, -0.0436
- HMGEKTLSEKVYDRLKELIMDGELERGTKITETSIAKMFDVSPTPVREAFRKLASDGLIEVASWKGVIVKG — higher, -0.0886
- HMGELYGTDQYKDGDAQDTNIGKLLEVNIDGKWQVATTGTSRFEFAGVMDDNGHKLIMISVLPEAKTV — higher, -0.18
- HMGEPLSPDARALTNVLRHYRGWAEPGELARKSGLGSRERVLTAAQSLVNAGLADIERGMVRPTAALMEVQ — higher, 0.0805
- HMGEPVASSREVAKRFGKEHKHVLAAIRQILVAENSATKFFHETAFEYRGQRFPEYLMNRDGFALLAMGF — lower, -3.1
- HMGEPVNSPMPGTILRVEVTQGAAVKEGQLLVVLEAMKMENEILAPKDGTVAQVVVQKGSHVETGSPLIVL — higher, -0.217
- HMGEQLALLERARTLLEDETLETEVQKELEMLLEDIEAARAEANATQLEDLFEELADLLFDLE — higher, -0.0786
- HMGEQYYVLIDNKQNGPHNINAIQKMIDQNIVNRQTLIWKKGMTDWGNIMDDKDLKEMVNKIP — higher, -0.0562
- HMGERMELTLDNPREAIPVLDAMGFANYQVVDKEHIHIFERLNESALVNMELAKAGIPVKGISITSE — higher, 0.018
- HMGESEWIVKWRGEKRDEERLQESELVRDDPEHRISVVRPRDDVDASAWLNRWRKSRYVQYIQPNHRVTIS — higher, 0.0613
- HMGESFPYVAYATDSVRLRARPSSSATILTVIRKGDAVLITGADGSYKIVEYEGRKGYVVSAFLSSQET — higher, -0.857
- HMGESVQVPSYVGMGFREAARKARARDFGVAVSDSIYVPGKPPGEIIAQDPKAESRVKEGRTIYFTVAK — higher, 0.0425
- HMGETAFRYALPLDQGEALKRSHVIRQSISPDDALATRVTVLEDVLDQTLRQPVQAGEVLLEDHFTR — higher, -0.00712
- HMGETRWTYDDFGNILTEKAAPYSATEFLGKTYTYDTDNRYLKTVTDALGRTTTTLSYDKYGNPLSVMD — higher, 0.101
- HMGETWYEILEISSDATTEEIRQAYFEQARQYHPDTNPGELAREWFYQVQEAYETLSDPDRRRQYDESIKG — higher, -0.402
- HMGEVEVPDLVGIEAIQAKTLLFNSDFLIKEFYDYDPTQPIGVVIRQAPEAGTTQTIGDSVTITINRA — higher, -0.116
- HMGEVISRSYPLLKTKAKPAEVSEALQKLIKAPATVTFDEKNEVFHINATRLQHTWAEGYFKGLHGK — higher, 0.0333
- HMGEVPPGWSVEALAAIERDLAHHVGPVARVLVQRGARLHTTTDDLRSALANAITDDLARRRFMQP — higher, -0.416
- HMGFEALRSRHRITAREMEVLQHMLAGRSNAEIGHTLGLSERTVKTHITSIFNKLGVDSRAQLGYMLK — higher, -0.498
- HMGFLTKTQRLEILLHLKDEPYYNVEKLKELIKNRYGIVYQSSQSYYDLLKEAGLSWHQTQA — higher, -0.64
- HMGFVTVTEVDTTADLKLARVYVSVLGPEEQWAKSFTALESARGFVWNWLRKHLDLRVTPQLAF — higher, -0.984
- HMGGASVTDQQIRDFVSAHTDDPMAIYKAAVANGISSARLAQVTGISIADIEAFVRKNNLPSF — higher, 0.0932
- HMGGEEINMINLVGLSQSEAENQLAKLKLKIGQVTAEYSDKPSGTVLKQSISANNKVKKGADIDIVVSKG — higher, 0.126
- HMGGELLSLRRIGTLTGISYPTLLRYVARYGEQIPQTGTGRSRRFPPAAVPVFQELRATRGRAPRATA — higher, -0.063
- HMGGEPKALLFAGVETREMAEITQRLEAADIPYEIREDGGSIYVARSEVFNARMMLSADGLPS — higher, -0.109
- HMGGFNATTLQNIEELRRSLSDADQFGRHEVIETIGGSDSRAGKLLKKMLEAGIIEQVKGHGKGRYRFKRT — higher, -0.0136
- HMGGGEYTVAKGDTLWKIAAQTLGSPTRYAEIYNLNKDVIEETARGRGKRDSSNGHWLFPGTALKIPGT — higher, 0.355
- HMGGGFLVPSLVGKSLEEARSLSELRGFKLEVGDYVISSEYPAGRVTRQNPANGAKGQEGDVIKVEVSS — higher, 0.0353
- HMGGGRELGLDPETGKKISVRLGKFGPFVQLGESGEEDKPVFANLGKNQSIATLSLEEAIALLARPK — higher, 0.246
- HMGGGVSSSLAGNVFKVLLPAGSVVEQGQAVIVLEAMKMETEVNAPKSGSVSSVFVNEGDTVEVGDLLFAI — higher, -0.17
- HMGGKWKAIIIYHLKNGPKRFGELRRALISSTETVLSNQLKQLEQDGLVSRQVFGTKPPLKTVYSLTDFG — lower, -3.06
- HMGGKWKLRILLALENSAQDALRYGEIKNIVSGITDMMLSQSLRELTADGLIERRQYQEIPPKVEYRLS — lower, -2.51
- HMGGKWKPIILYYININSVARYSELKRFIPSINERMLTRQLRELEEDNLIERKVYPIVPPKVEYRLTEYGK — higher, 0.0177
- HMGGKWSMPIIYILSKGKMRFKELERSVEGINTRMLVKELKNMEANGIVTREVFPTVPPTVEYALT — higher, -0.922
- HMGGKYKGVIIGHLIDKTLRYNELQKLISHATPKMLIQQLKELEADGIIQRKLYPVVPPKTEYSLTERG — higher, -0.754
- HMGGLAEGTKITLQNTVNVRASMGEDAEKIGTAYAGEKVTVIMSYAEGWTKVTWNDKTGYIKTSLL — higher, -0.634
- HMGGLAHPASGEEMEHLFAHLEGELLKSGFLFPPDKAAGMMRNIRAMLTRADFTDQEVRTLRGMIVALSRG — lower, -1.66
- HMGGNDALEIAKSNPQVIEVLGEPVTKDGMGSYSVNYKNGHKTSEATIPIEGPNGTATLHVKTSGSDDAL — higher, 0.261
- HMGGNKILTWKTDAATTRNQVPINERKEGLEISYKNEERNWVAEKYVGTSFSDDKWGVDYNWNQD — higher, 0.421
- HMGGPAGPDFTYTGDDLTRIDYDDGSYKVFTYDAGKLSQIDFTSGGTTTRKTFVYSGDTLIRVDQTI — higher, -0.44
- HMGGPEPIPAQIREGDTVYVTKFKQLGLVLKISEDTAEVQIGPLRATVAKTELSKVDATATEHR — higher, 0.158
- HMGGQFVKVEVIAQIFGVTVRRVQQLTQEGVVKTTEIPGEGRRYELVPTIKTYIQYLSDKAY — lower, -4.01
- HMGGTFLVRILDPALNIRAQPSLTARINGVIRDKSVYTIVATSFEPKTQITWGKLKSGAGWISIGSKYVKK — lower, -3.52
- HMGGVTVQNRETHVNSTVNVRSEQTTESERVALAYQGDAITQIESYENGWSKVEYKGLSGYVMTEYL — higher, -0.181
